The nature of this series: protein stability index of a GFP-peptide fusion (GPS, HEK-293T) (PSI 1-6); higher = more stable. As to conditions: c terminus: a fixed tail appended.

± gives the standard deviation.
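Note: 24-mer peptide tiles fused after GFP, lentivirally expressed, FACS-sorted into six equal bins by GFP/DsRed ratio, decoded by Illumina sequencing, PSI is the read-weighted mean bin number.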

Consider SFRGAFSNSEKAKNIFRIRFHDPS [NET1], for which the protein stability index is, setting by setting: (treatment: DMSO) 2.59 ± 0.34; (treatment: MLN4924 1 uM, 8 h) 2.65 ± 0.12.

For IFDDNFIEERKQGLEQFINKVAGH [SNX3], the protein stability index (treatment: DMSO) was 3.03 ± 0.39 and the protein stability index (treatment: MLN4924 1 uM, 8 h) was 3.32 ± 0.44.

On to LKLRQQVIATATVYFKRFYARYSL [CCNC], for which the protein stability index is, setting by setting: (treatment: DMSO) 2.85 ± 0.51; (treatment: MLN4924 1 uM, 8 h) 2.49 ± 0.18.

With NLNEDDTFLVFSKAELGALPHDFI, the protein stability index is, setting by setting: (treatment: DMSO) 2.82 ± 0.2; (treatment: MLN4924 1 uM, 8 h) 2.87 ± 0.16.

YSIDQEFLKEYFPIEVVTEGLLNT [NLN] returned a protein stability index (treatment: DMSO) of 2.79 ± 0.24 and a protein stability index (treatment: MLN4924 1 uM, 8 h) of 3.19 ± 0.53.

Regarding ESQVFSEKLATDTSTFEATSEGTL [ZNF232], the protein stability index is 5.29 ± 0.13 (treatment: DMSO) and 5.15 ± 0.13 (treatment: MLN4924 1 uM, 8 h).

Turning to NICELAARMLFSAVEWARNIPFFP [NR2F2], the protein stability index was found to be 3.61 ± 0.17 (treatment: DMSO) and 3.23 ± 0.06 (treatment: MLN4924 1 uM, 8 h).

With FSTSKWNHLLHHFVIGHLKGAPAS [FADS1], the protein stability index is, setting by setting: (treatment: DMSO) 2.65 ± 0.67; (treatment: MLN4924 1 uM, 8 h) 2.17 ± 0.38.

With PELKSLAKTFHLVNPNGQKQQLVD [FAN1], the protein stability index (treatment: DMSO) turned out to be 4.05 ± 0.07 and the protein stability index (treatment: MLN4924 1 uM, 8 h) stood at 4.2 ± 0.22.

Take GFGVLRLDADAAQRVVYLEGCGPP [TSPAN10]: the protein stability index worked out at 2.88 ± 0.33 (treatment: DMSO) and 2.65 ± 0.13 (treatment: MLN4924 1 uM, 8 h).

As for EVASNTEMIQTSKTEITDLRRTMQ [KRT15], the protein stability index runs as follows: (treatment: DMSO) 3.89 ± 0.21; (treatment: MLN4924 1 uM, 8 h) 4.27 ± 0.32.

Take VLKRQRKRRVALSPVTENSTSLSF [MYBL2]: the protein stability index reads like this: (treatment: DMSO) 3.59 ± 0.22; (treatment: MLN4924 1 uM, 8 h) 3.5 ± 0.14.

The sequence SAAWMKERTSPGAIHYCASTSEES [SPDEF] came in with a protein stability index (treatment: DMSO) of 4.66 ± 0.13 and a protein stability index (treatment: MLN4924 1 uM, 8 h) of 4.72 ± 0.3.

In the case of RIHTGERPYMCKECGKAFSQNSSL [ZNF8], the protein stability index by setting is: (treatment: DMSO) 2.84 ± 0.39; (treatment: MLN4924 1 uM, 8 h) 3.2 ± 0.74.

For the sequence MPGDTDDAFPVHRVMMASASDYFK [KLHL13], the protein stability index came to 3.66 ± 0.35 (treatment: DMSO) and 3.6 ± 0.13 (treatment: MLN4924 1 uM, 8 h).

As for SLSFEDELVYADDYIMDEDQSKLA [ESRRG], the protein stability index runs as follows: (treatment: DMSO) 5.43 ± 0.31; (treatment: MLN4924 1 uM, 8 h) 5.41 ± 0.27.

Regarding CRAPPPEARGIRAPPLPDSPQPLA [FCHO1], the protein stability index was 4.2 ± 0.6 (treatment: DMSO) and 4.3 ± 0.22 (treatment: MLN4924 1 uM, 8 h).

For the sequence DQGDEGKEGRPGIPGLPGLRGLPG [SCARA5], the protein stability index came out at 5 ± 0.13 (treatment: DMSO) and 4.93 ± 0.29 (treatment: MLN4924 1 uM, 8 h).

QTLKAMVQAWPFTCLPLGVLMKGQ [PRAME] had a protein stability index (treatment: DMSO) of 2.65 ± 0.85 and a protein stability index (treatment: MLN4924 1 uM, 8 h) of 3.03 ± 0.38.

With WELREKQQLAAEPVPTGFFNMWGF [WDR41], the protein stability index is, setting by setting: (treatment: DMSO) 2.01 ± 0.11; (treatment: MLN4924 1 uM, 8 h) 2.37 ± 0.23.

NLYSWDDFMELGRSIPDTQLEQVI [ACSBG2]: the protein stability index runs as follows: (treatment: DMSO) 3.25 ± 0.25; (treatment: MLN4924 1 uM, 8 h) 3.38 ± 0.31.

Take LKMKEREEAWVKIENLAKANPQYT [PPP2R5C]: the protein stability index came to 3.4 ± 0.22 (treatment: DMSO) and 3.56 ± 0.19 (treatment: MLN4924 1 uM, 8 h).

As for DLYNWEVAIFGPPNTYYEGGYFKA [CDC34], the protein stability index is 2.65 ± 0.5 (treatment: DMSO) and 2.51 ± 0.95 (treatment: MLN4924 1 uM, 8 h).

With HGGSLLGKKYNWSCDDLMGGGGLH [GFOD1], the protein stability index reads like this: (treatment: DMSO) 2.73 ± 0.28; (treatment: MLN4924 1 uM, 8 h) 2.95 ± 0.27.

Regarding KRSSLPRPSSILPPRRGVSGDRDE [MAP2], the protein stability index is, setting by setting: (treatment: DMSO) 5.04 ± 0.24; (treatment: MLN4924 1 uM, 8 h) 5.16 ± 0.3.

Regarding QPWMVIEGIRQTEYTLTGLKFDMK [FSD1], the protein stability index is, setting by setting: (treatment: DMSO) 2.29 ± 0.35; (treatment: MLN4924 1 uM, 8 h) 2.52 ± 0.49.
